Target: T1, PUF4 RNA-binding domain (Saccharomyces cerevisiae, UniProt P25339 537-888)
T1 sequence: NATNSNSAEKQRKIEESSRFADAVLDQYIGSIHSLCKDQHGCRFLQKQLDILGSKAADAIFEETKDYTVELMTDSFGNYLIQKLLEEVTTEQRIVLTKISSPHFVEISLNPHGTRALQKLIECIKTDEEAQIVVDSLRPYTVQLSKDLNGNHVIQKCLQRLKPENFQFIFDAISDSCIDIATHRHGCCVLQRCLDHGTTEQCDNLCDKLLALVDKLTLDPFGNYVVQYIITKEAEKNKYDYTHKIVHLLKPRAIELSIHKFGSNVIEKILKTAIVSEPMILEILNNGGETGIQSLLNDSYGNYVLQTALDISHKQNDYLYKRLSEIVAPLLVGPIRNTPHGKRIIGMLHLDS
Experiment: Mg; RNA-MaP; 20 mM Na-HEPES pH 7.4, 30 mM KOAc, 0.75 mM MgCl2, 0.1% Tween-20, 5% glycerol, 0.1 mg/mL BSA, 2 mM DTT; 25 C; 0.0125-409.6 nM protein
Conditions: tags: N-His6-TEV cleaved; C-SNAP kept, Cy3B-labelled; label: tethered on chip by stalled RNA polymerase

Binder | Kd
UCUCUUUAUAUAUCAUCUCUU (ssRNA) [Ib_S1_P4E.1_K4.1_C4.1_H4.1_[G2A]_A4.1_F4.1_[T8C]_T4.1] | 1060 nM
UCUCUUUAUAUAUGAUCUCUU (ssRNA) [Ib_S1_P4E.1_K4.1_C4.1_H4.1_[G2A]_A4.1_F4.1_[T8G]_T4.1] | > 2300 nM
UCUCUUUUUAUAUAAUCUCUU (ssRNA) [Ib_S1_P4E.1_K4.1_C4.1_H4.1_[G2T]_A4.1_F4.1_[T8A]_T4.1] | 2120 nM
Ic_S2_P4E.1_K4.1_C4.1_H4.1_A4.1_[T7C]_F4.1_[T8C]_[A9T]_T4.1 (ssRNA) RNA: UUUGAUUAAUAUGAUAUCGUUCUUUCUUGUAUACCUUUCUUUCUCGAUAUCAUAUUAAUCUUU | 15.8 nM
Ic_S2_P4E.1_K4.1_C4.1_H4.1_A4.1_[T7C]_F4.1_[T8A]_[A9C]_T4.1 (ssRNA) RNA: UUUGAUUAAUAUGAUAUCGUUCUUUCUUGUAUACACUUCUUUCUCGAUAUCAUAUUAAUCUUU | 60.4 nM
Ic_S2_P4E.1_K4.1_C4.1_H4.1_A4.1_[T7C]_F4.1_[T8A]_[A9T]_T4.1 (ssRNA) RNA: UUUGAUUAAUAUGAUAUCGUUCUUUCUUGUAUACAUUUCUUUCUCGAUAUCAUAUUAAUCUUU | 16.4 nM
Ic_S2_P4E.1_K4.1_C4.1_H4.1_A4.1_F4.1_T4.1 (ssRNA) RNA: UUUGAUUAAUAUGAUAUCGUUCUUUCUUGUAUAUUAUUCUUUCUCGAUAUCAUAUUAAUCUUU | 0.224 nM
UCUCUUUCUAUAUUAUCUCUU (ssRNA) [Ia_S1_P4E.1_K4.1_C4.1_H4.1_[G2C]_A4.1_F4.1_T4.1] | 1380 nM
Ic_S2_P5E.1_K5.1_C5.1_H5.1_A5.1_[T6C]_[A7C]_F5.1_[T8G]_[T9C]_[A10T]_T5.1 (ssRNA) RNA: UUUGAUUAAUAUGAUAUCGUUCUUUCUUGUAUCCGCUUUCUUUCUCGAUAUCAUAUUAAUCUUU | 596 nM
Ic_S2_P5E.1_K5.1_C5.1_H5.1_A5.1_[T5C]_[T6A]_[A7C]_F5.1_[T9G]_[A10G]_T5.1 (ssRNA) RNA: UUUGAUUAAUAUGAUAUCGUUCUUUCUUGUACACUGGUUCUUUCUCGAUAUCAUAUUAAUCUUU | 4.81 nM
Ic_S2_P5E.1_K5.1_C5.1_H5.1_A5.1_[T5C]_[A7C]_F5.1_[T8A]_[T9G]_[A10C]_T5.1 (ssRNA) RNA: UUUGAUUAAUAUGAUAUCGUUCUUUCUUGUACUCAGCUUCUUUCUCGAUAUCAUAUUAAUCUUU | 818 nM
Ic_S2_P5E.1_K5.1_C5.1_H5.1_A5.1_[T5G]_F5.1_[T8A]_[T9C]_[A10C]_T5.1 (ssRNA) RNA: UUUGAUUAAUAUGAUAUCGUUCUUUCUUGUAGUAACCUUCUUUCUCGAUAUCAUAUUAAUCUUU | 832 nM
Ic_S2_P5E.1_K5.1_C5.1_H5.1_A5.1_[T5C]_[T6C]_[A7T]_F5.1_[T8C]_[T9C]_T5.1 (ssRNA) RNA: UUUGAUUAAUAUGAUAUCGUUCUUUCUUGUACCUCCAUUCUUUCUCGAUAUCAUAUUAAUCUUU | 110 nM
Ic_S2_P5E.1_K5.1_C5.1_H5.1_A5.1_[T5C]_[T6G]_[A7T]_F5.1_[T9G]_[A10T]_T5.1 (ssRNA) RNA: UUUGAUUAAUAUGAUAUCGUUCUUUCUUGUACGUUGUUUCUUUCUCGAUAUCAUAUUAAUCUUU | 31.8 nM
Ic_S2_P5E.1_K5.1_C5.1_H5.1_A5.1_[T5C]_[A7C]_F5.1_[T9C]_[A10G]_T5.1 (ssRNA) RNA: UUUGAUUAAUAUGAUAUCGUUCUUUCUUGUACUCUCGUUCUUUCUCGAUAUCAUAUUAAUCUUU | 152 nM
Ic_S2_P5E.1_K5.1_C5.1_H5.1_A5.1_F5.1_[T8C]_[T9A]_[A10T]_T5.1 (ssRNA) RNA: UUUGAUUAAUAUGAUAUCGUUCUUUCUUGUAUUACAUUUCUUUCUCGAUAUCAUAUUAAUCUUU | 444 nM
Ic_S2_P5E.1_K5.1_C5.1_H5.1_A5.1_[A7C]_F5.1_[T8C]_[T9C]_[A10T]_T5.1 (ssRNA) RNA: UUUGAUUAAUAUGAUAUCGUUCUUUCUUGUAUUCCCUUUCUUUCUCGAUAUCAUAUUAAUCUUU | 142 nM
Ic_S2_P5E.1_K5.1_C5.1_H5.1_A5.1_[T5G]_F5.1_[T8A]_[T9A]_T5.1 (ssRNA) RNA: UUUGAUUAAUAUGAUAUCGUUCUUUCUUGUAGUAAAAUUCUUUCUCGAUAUCAUAUUAAUCUUU | 656 nM
Ic_S2_P5E.1_K5.1_C5.1_H5.1_A5.1_[T5C]_F5.1_[T8A]_[T9A]_T5.1 (ssRNA) RNA: UUUGAUUAAUAUGAUAUCGUUCUUUCUUGUACUAAAAUUCUUUCUCGAUAUCAUAUUAAUCUUU | 55.1 nM
Ic_S2_P5E.1_K5.1_C5.1_H5.1_A5.1_[T6C]_F5.1_[T8A]_[A10T]_T5.1 (ssRNA) RNA: UUUGAUUAAUAUGAUAUCGUUCUUUCUUGUAUCAAUUUUCUUUCUCGAUAUCAUAUUAAUCUUU | 29.9 nM
Ic_S2_P5E.1_K5.1_C5.1_H5.1_A5.1_[T5A]_[A7C]_F5.1_[T8A]_[T9C]_[A10C]_T5.1 (ssRNA) RNA: UUUGAUUAAUAUGAUAUCGUUCUUUCUUGUAAUCACCUUCUUUCUCGAUAUCAUAUUAAUCUUU | 545 nM
Ic_S2_P5E.1_K5.1_C5.1_H5.1_A5.1_[T5C]_[T6A]_[A7T]_F5.1_[T8G]_[T9G]_[A10T]_T5.1 (ssRNA) RNA: UUUGAUUAAUAUGAUAUCGUUCUUUCUUGUACAUGGUUUCUUUCUCGAUAUCAUAUUAAUCUUU | 45.8 nM

Binder | Kd
Ic_S2_P5E.1_K5.1_C5.1_H5.1_A5.1_[T5C]_[T6G]_[A7C]_F5.1_[T8G]_[T9C]_[A10C]_T5.1 (ssRNA) RNA: UUUGAUUAAUAUGAUAUCGUUCUUUCUUGUACGCGCCUUCUUUCUCGAUAUCAUAUUAAUCUUU | 548 nM
Ic_S2_P5E.1_K5.1_C5.1_H5.1_A5.1_[T5C]_[T6A]_[A7T]_F5.1_[T9A]_T5.1 (ssRNA) RNA: UUUGAUUAAUAUGAUAUCGUUCUUUCUUGUACAUUAAUUCUUUCUCGAUAUCAUAUUAAUCUUU | 0.373 nM
Ic_S2_P5E.1_K5.1_C5.1_H5.1_A5.1_[T5G]_[T6C]_[A7C]_F5.1_[T9A]_[A10T]_T5.1 (ssRNA) RNA: UUUGAUUAAUAUGAUAUCGUUCUUUCUUGUAGCCUAUUUCUUUCUCGAUAUCAUAUUAAUCUUU | 4.62 nM
Ic_S2_P5E.1_K5.1_C5.1_H5.1_A5.1_[T5G]_[T6C]_[A7C]_F5.1_[T8C]_[A10T]_T5.1 (ssRNA) RNA: UUUGAUUAAUAUGAUAUCGUUCUUUCUUGUAGCCCUUUUCUUUCUCGAUAUCAUAUUAAUCUUU | 254 nM
Ic_S2_P5E.1_K5.1_C5.1_H5.1_A5.1_[T5C]_[T6A]_[A7T]_F5.1_[T8G]_T5.1 (ssRNA) RNA: UUUGAUUAAUAUGAUAUCGUUCUUUCUUGUACAUGUAUUCUUUCUCGAUAUCAUAUUAAUCUUU | 2.58 nM
Ic_S2_P5E.1_K5.1_C5.1_H5.1_A5.1_[T5C]_[T6G]_[A7T]_F5.1_[T8C]_[T9C]_[A10C]_T5.1 (ssRNA) RNA: UUUGAUUAAUAUGAUAUCGUUCUUUCUUGUACGUCCCUUCUUUCUCGAUAUCAUAUUAAUCUUU | 167 nM
Ic_S2_P5E.1_K5.1_C5.1_H5.1_A5.1_[T6C]_F5.1_[T8A]_[T9A]_[A10C]_T5.1 (ssRNA) RNA: UUUGAUUAAUAUGAUAUCGUUCUUUCUUGUAUCAAACUUCUUUCUCGAUAUCAUAUUAAUCUUU | 170 nM
Ic_S2_P5E.1_K5.1_C5.1_H5.1_A5.1_[T5A]_[T6C]_[A7T]_F5.1_[T8C]_[T9A]_T5.1 (ssRNA) RNA: UUUGAUUAAUAUGAUAUCGUUCUUUCUUGUAACUCAAUUCUUUCUCGAUAUCAUAUUAAUCUUU | 1040 nM
Ic_S2_P5E.1_K5.1_C5.1_H5.1_A5.1_[T5A]_[T6C]_[A7C]_F5.1_[T9A]_[A10T]_T5.1 (ssRNA) RNA: UUUGAUUAAUAUGAUAUCGUUCUUUCUUGUAACCUAUUUCUUUCUCGAUAUCAUAUUAAUCUUU | 4.74 nM
Ic_S2_P5E.1_K5.1_C5.1_H5.1_A5.1_[T5C]_[T6C]_[A7G]_F5.1_[T8A]_[T9C]_[A10C]_T5.1 (ssRNA) RNA: UUUGAUUAAUAUGAUAUCGUUCUUUCUUGUACCGACCUUCUUUCUCGAUAUCAUAUUAAUCUUU | 1140 nM
Ic_S2_P5E.1_K5.1_C5.1_H5.1_A5.1_[T6A]_[A7G]_F5.1_[T9A]_[A10C]_T5.1 (ssRNA) RNA: UUUGAUUAAUAUGAUAUCGUUCUUUCUUGUAUAGUACUUCUUUCUCGAUAUCAUAUUAAUCUUU | 2.48 nM
Ic_S2_P5E.1_K5.1_C5.1_H5.1_A5.1_[T5C]_[A7G]_F5.1_[T8G]_[T9C]_[A10T]_T5.1 (ssRNA) RNA: UUUGAUUAAUAUGAUAUCGUUCUUUCUUGUACUGGCUUUCUUUCUCGAUAUCAUAUUAAUCUUU | 1660 nM
Ic_S2_P5E.1_K5.1_C5.1_H5.1_A5.1_[T5A]_[A7C]_F5.1_[T8C]_[T9C]_T5.1 (ssRNA) RNA: UUUGAUUAAUAUGAUAUCGUUCUUUCUUGUAAUCCCAUUCUUUCUCGAUAUCAUAUUAAUCUUU | 669 nM
Ic_S2_P5E.1_K5.1_C5.1_H5.1_A5.1_[T5G]_[T6C]_F5.1_[T8C]_[A10G]_T5.1 (ssRNA) RNA: UUUGAUUAAUAUGAUAUCGUUCUUUCUUGUAGCACUGUUCUUUCUCGAUAUCAUAUUAAUCUUU | 794 nM
Ic_S2_P5E.1_K5.1_C5.1_H5.1_A5.1_[T6A]_[A7G]_F5.1_[T9C]_[A10C]_T5.1 (ssRNA) RNA: UUUGAUUAAUAUGAUAUCGUUCUUUCUUGUAUAGUCCUUCUUUCUCGAUAUCAUAUUAAUCUUU | 17.8 nM
Ic_S2_P5E.1_K5.1_C5.1_H5.1_A5.1_[T5G]_[T6C]_[A7T]_F5.1_[A10T]_T5.1 (ssRNA) RNA: UUUGAUUAAUAUGAUAUCGUUCUUUCUUGUAGCUUUUUUCUUUCUCGAUAUCAUAUUAAUCUUU | 37.5 nM
Ic_S2_P5E.1_K5.1_C5.1_H5.1_A5.1_[T6G]_[A7T]_F5.1_[T8C]_[T9A]_[A10C]_T5.1 (ssRNA) RNA: UUUGAUUAAUAUGAUAUCGUUCUUUCUUGUAUGUCACUUCUUUCUCGAUAUCAUAUUAAUCUUU | 293 nM
Ic_S2_P5E.1_K5.1_C5.1_H5.1_A5.1_[T6A]_[A7T]_F5.1_[T8C]_[T9G]_[A10C]_T5.1 (ssRNA) RNA: UUUGAUUAAUAUGAUAUCGUUCUUUCUUGUAUAUCGCUUCUUUCUCGAUAUCAUAUUAAUCUUU | 21.9 nM
Ic_S2_P5E.1_K5.1_C5.1_H5.1_A5.1_[T5G]_[T6C]_[A7T]_F5.1_[T8C]_[A10C]_T5.1 (ssRNA) RNA: UUUGAUUAAUAUGAUAUCGUUCUUUCUUGUAGCUCUCUUCUUUCUCGAUAUCAUAUUAAUCUUU | 383 nM
Ic_S2_P5E.1_K5.1_C5.1_H5.1_A5.1_[T5C]_[T6A]_[A7G]_F5.1_[T8C]_[T9C]_T5.1 (ssRNA) RNA: UUUGAUUAAUAUGAUAUCGUUCUUUCUUGUACAGCCAUUCUUUCUCGAUAUCAUAUUAAUCUUU | 119 nM
Ic_S2_P5E.1_K5.1_C5.1_H5.1_A5.1_[T6C]_[A7G]_F5.1_[T8G]_T5.1 (ssRNA) RNA: UUUGAUUAAUAUGAUAUCGUUCUUUCUUGUAUCGGUAUUCUUUCUCGAUAUCAUAUUAAUCUUU | 37.7 nM

— paper PMC9352680, “A comprehensive thermodynamic model for RNA binding by the Saccharomyces cerevisiae Pumilio protein PUF4”
